Reference: patent USRE46585 (LABORATOIRE FRANCAIS DU FRACTIONNEMENT ET DES …, dated 2017)
Residue numbers refer to the chain shown, from its start.

B1: C6A_60C (other)
chain: CPLCSAPELLGGPSVFLFPPKPKDTLMISRTPEVTCVVVDVSHEDPEVKFNWYVDGVEVHNAKTKPREEQYNSTYRVVSVLTVLHQDWLDGKEYKCKVSNKALPAPIEKTISKAKGQPREPQVYTLPPSRDELTKNQVSLTCLVKGFYPSDIAVEWESNGQPENNYKTTPPVLDSDGSFFLYSKLTVDKSRWQQGNVFSCSVLHEALHYHYTQKSLSLSPGK
notes: EU numbering
B2: C6A_60D (other)
chain: B1 chain with L3R
notes: EU numbering
B3: C6A_69D (other)
chain: B1 chain with S5P, T82A, A105V, E157V, N164T, L203M
notes: EU numbering
B4: C6A_74D (other)
chain: B1 chain with L3R, S5P, V34I, L203M
notes: EU numbering
B5: T3A_41 (other)
chain: B1 chain with L3P, S5P, V39E, T82P, D90N, A153V, L203M, Y209N
notes: EU numbering
B6: T3A_43 (other)
chain: B1 chain with L3P, S5P, V39E, D90N, E120G, A153V, L203M, Y209N
notes: EU numbering
B7: T3A_47 (other)
chain: B1 chain with L3P, S5P, T82P, D90N, A153T, V172M, L203M, Y209N
notes: EU numbering
B8: T4A_04 (other)
chain: B1 chain with L3P, S5P, A105V, E157V, L203M
notes: EU numbering
B9: T4A_18 (other)
chain: B1 chain with L3P, S5P, Q117R, E157V, L203M
notes: EU numbering
B10: T4A_19 (other)
chain: B1 chain with L3P, S5P, T82P, D90N, A153V, L203M, Y209S
notes: EU numbering
B11: T4A_26 (other)
chain: B1 chain with L3P, S5P, V39E, T82P, D90N, A153V, E157G, Q161R, L203M, Y209N
notes: EU numbering
B12: T4A_31 (other)
chain: B1 chain with L3P, S5T, F16L, V39E, T82P, D90N, A153V, L203M, Y209N
notes: EU numbering
B13: T4A_32 (other)
chain: B1 chain with L3P, S5P, V39E, D90N, A153V, L203M, H208R, Y209N
notes: EU numbering
B14: T4A_34 (other)
chain: B1 chain with L3P, S5P, V39E, D90N, A153V, Q193K, L203M, Y209N
notes: EU numbering
B15: T4A_39 (other)
chain: B1 chain with L3P, S5P, V39E, D90N, A153V, P171L, L203M, Y209N
notes: EU numbering
B16: T4A_41 (other)
chain: B1 chain with L3P, S5P, F16R, V39E, T82P, D90N, A153V, L203M, Y209N
notes: EU numbering
B17: T4A_43 (other)
chain: B1 chain with L3P, S5P, D90N, I107V, K145R, A153V, L203M, Y209S
notes: EU numbering
B18: T4A_44 (other)
chain: B1 chain with C1G, L3P, S5P, V39E, D90N, A153V, F179L, L203M, Y209N
notes: EU numbering
B19: T4A_45 (other)
chain: B1 chain with L3P, S5P, V39E, L84P, D90N, P171L, L203M, Y209S
notes: EU numbering
B20: T4A_46 (other)
chain: B1 chain with L3P, S5T, D90N, N164K, L203M
notes: EU numbering
B21: T5A_03 (other)
chain: B1 chain with L3P, S5P, V39E, D90N, P171L, L203M, Y209S
notes: EU numbering
B22: T5A_05 (other)
chain: B1 chain with L3P, S5P, V39E, E44G, D90N, A153V, N196T, L203M, Y209S
notes: EU numbering
B23: T5A_28 (other)
chain: B1 chain with L3P, S5P, F16L, V39E, D90N, A153V, L203M
notes: EU numbering
B24: T5A_29 (other)
chain: B1 chain with L3P, S5P, E157V, L203M
notes: EU numbering
B25: T5A_37 (other)
chain: B1 chain with L3P, S5P, S73G, A105V, L203M
notes: EU numbering
B26: T5A_40 (other)
chain: B1 chain with L3P, S5T, V39E, T82P, D90N, A153V, N196T, L203M, Y209N
notes: EU numbering
B27: T5A_44 (other)
chain: B1 chain with L3P, S5P, F16L, V39E, T82P, D90N, A153T, V172M, L203M, Y209N
notes: EU numbering
B28: T5A_51 (other)
chain: B1 chain with L3P, S5P, V39E, D90N, A153V, F179L, L203M, Y209S
notes: EU numbering
B29: T5A_52 (other)
chain: B1 chain with L3P, S5P, A102V, A105V, L203M
notes: EU numbering
B30: T5A_59 (other)
chain: B1 chain with L3P, S5P, D90N, Q117R, R130G, E157V, L203M
notes: EU numbering
B31: T5A_90 (other)
chain: B1 chain with L3P, S5P, A105V, K167R, S199L, L203M
notes: EU numbering
B32: T6A_13 (other)
chain: B1 chain with L3P, S5T, A105V, Q137R, L203M
notes: EU numbering
B33: T6A_40 (other)
chain: B1 chain with L3P, S5A, F16L, V39E, D90N, A153V, N196T, L203M, Y209N
notes: EU numbering
B34: T6A_47 (other)
chain: B1 chain with L3P, S5T, D90N, K95T, L203M
notes: EU numbering
B35: T6A_93 (other)
chain: B1 chain with L3P, S5P, T74K, Q86R, L203M
notes: EU numbering
B36: T7A_17 (other)
chain: B1 chain with L3P, S5P, V39E, P66S, D90N, Q137R, A153V, L203M
notes: EU numbering
B37: T7A_18 (other)
chain: B1 chain with L3P, S5P, V39E, D90N, A153V, Q161R, L203M, Y209S
notes: EU numbering
B38: T7A_24 (other)
chain: B1 chain with L3P, S5P, V39E, D90N, A153V, N196T, L203M
notes: EU numbering
B39: T7A_35 (other)
chain: B1 chain with L3P, S5P, Q137R, L203M, S219P
notes: EU numbering
B40: T7A_46 (other)
chain: B1 chain with L3P, S5P, V39E, D90N, A153V, G160R, L203M, Y209S
notes: EU numbering
B41: T7A_48 (other)
chain: B1 chain with L3P, S5T, L9R, A105V, L203M
notes: EU numbering
B42: T7A_49 (other)
chain: B1 chain with L3P, S5T, K95E, Q137R, L203M
notes: EU numbering
B43: T7A_57 (other)
chain: B1 chain with L3P, S5T, T82A, A105V, Q193E, L203M
notes: EU numbering
B44: T7A_58 (other)
chain: B1 chain with L3P, S5P, Q137E, L203M
notes: EU numbering
B45: T7A_87 (other)
chain: B1 chain with L3P, Q137R, L203M
notes: EU numbering
B46: T8A_24 (other)
chain: B1 chain with L3P, S5P, V39E, T82P, D90N, A153V, L203M, Y209S
notes: EU numbering
B47: T8A_34 (other)
chain: B1 chain with L3P, S5P, T82A, T110A, L203M
notes: EU numbering
B48: T8A_41 (other)
chain: B1 chain with L3P, S5P, V39E, D90N, P118S, A153V, L203M, Y209S
notes: EU numbering
B49: T8A_45 (other)
chain: B1 chain with L3P, S5P, D90N, S150A, A153V, L203M
notes: EU numbering
B50: T8A_81 (other)
chain: B1 chain with L3P, S5P, V39A, E157V, L203M
notes: EU numbering

target: T1, FcRn-p3 fusion protein (human, UniProt P55899 24-297; P61769 21-119); experiment: phage ELISA pH6
T1 construct: baculovirus expressed; coated on ELISA wells; not shown: amino terminal part of bacteriophage p3 protein and CVDE protein
T1 sequence (P55899 24-297, chain 1 of 2): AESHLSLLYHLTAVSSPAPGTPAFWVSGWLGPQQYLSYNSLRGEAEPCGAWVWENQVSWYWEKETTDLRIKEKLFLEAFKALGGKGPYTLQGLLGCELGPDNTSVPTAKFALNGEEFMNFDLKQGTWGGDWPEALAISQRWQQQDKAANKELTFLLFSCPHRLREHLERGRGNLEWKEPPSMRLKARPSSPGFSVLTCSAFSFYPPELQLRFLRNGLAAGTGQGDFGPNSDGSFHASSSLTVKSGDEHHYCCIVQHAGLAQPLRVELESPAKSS
T1 sequence (P61769 21-119, chain 2 of 2): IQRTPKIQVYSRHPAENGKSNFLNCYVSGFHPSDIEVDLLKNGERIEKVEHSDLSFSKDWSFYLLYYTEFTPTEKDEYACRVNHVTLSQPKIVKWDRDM

First: B1
Second: B2
The Ratio/Fc-H of the first is lower: 5.3 fold for the first, 7.4 fold for the second.

Compared with B3, B4 is higher in Ratio/Fc-H: 4.8 fold for the first, 18.6 fold for the second.

target: T1, FcRn-p3 fusion protein; experiment: phage ELISA pH6 (est.)

First: B1
Second: B2
The Ratio/Fc-WT of the first is lower: 17.1 fold for the first, 23.8 fold for the second.

Compared with B3, B4 is higher in Ratio/Fc-WT: 15.3 fold for the first, 59.7 fold for the second.

target: T1, FcRn-p3 fusion protein; experiment: phage ELISA pH6 (est.); remark: another data set of the same source

First: B5
Second: B6
The Ratio/FWT of the first is higher: 7.2 fold for the first, 4.5 fold for the second.

Compared with B7, B8 is higher in Ratio/FWT: 6.3 fold for the first, 9.7 fold for the second.

First: B9
Second: B10
The Ratio/FWT of the first is lower: 9.7 fold for the first, 11.4 fold for the second.

First: B11
Second: B12
The Ratio/FWT of the first is lower: 11.5 fold for the first, 11.7 fold for the second.

Compared with B13, B14 is lower in Ratio/FWT: 7.4 fold for the first, 4.3 fold for the second.

Compared with B15, B16 is higher in Ratio/FWT: 4.4 fold for the first, 8 fold for the second.

First: B17
Second: B18
The Ratio/FWT of the first is lower: 6.3 fold for the first, 12 fold for the second.

First: B19
Second: B20
The Ratio/FWT of the first is lower: 8.7 fold for the first, 11.4 fold for the second.

Compared with B21, B22 is higher in Ratio/FWT: 6.4 fold for the first, 8.8 fold for the second.

Compared with B23, B24 is lower in Ratio/FWT: 7.9 fold for the first, 6 fold for the second.

Compared with B25, B26 is higher in Ratio/FWT: 7 fold for the first, 10.8 fold for the second.

Compared with B27, B28 is higher in Ratio/FWT: 3.8 fold for the first, 9 fold for the second.

Going from B29 to B30, the Ratio/FWT rises from 5.9 fold to 7.8 fold.

Going from B31 to B32, the Ratio/FWT rises from 5.7 fold to 9.3 fold.

B33 and B34 are the same in Ratio/FWT: 9.1 fold for the first, 9.1 fold for the second.

Going from B35 to B36, the Ratio/FWT rises from 3.5 fold to 6.3 fold.

First: B37
Second: B38
The Ratio/FWT of the first is higher: 8.9 fold for the first, 7.2 fold for the second.

Compared with B39, B40 is higher in Ratio/FWT: 5.4 fold for the first, 8.2 fold for the second.

B41 and B42 are the same in Ratio/FWT: 11.6 fold for the first, 11.6 fold for the second.

Going from B43 to B44, the Ratio/FWT rises from 8.1 fold to 9.4 fold.

Compared with B45, B46 is higher in Ratio/FWT: 9.3 fold for the first, 11.1 fold for the second.

First: B47
Second: B48
The Ratio/FWT of the first is lower: 5.6 fold for the first, 7.9 fold for the second.

Going from B49 to B50, the Ratio/FWT rises from 5.9 fold to 8.2 fold.

target: T1, FcRn-p3 fusion protein; experiment: phage ELISA pH6; remark: another data set of the same source

First: B5
Second: B6
The Ratio/Fc-H of the first is higher: 2.3 fold for the first, 1.4 fold for the second.

Compared with B7, B8 is higher in Ratio/Fc-H: 2 fold for the first, 3 fold for the second.

First: B9
Second: B10
The Ratio/Fc-H of the first is lower: 3 fold for the first, 3.6 fold for the second.

Going from B11 to B12, the Ratio/Fc-H rises from 3.6 fold to 3.7 fold.

First: B13
Second: B14
The Ratio/Fc-H of the first is higher: 2.3 fold for the first, 1.3 fold for the second.

Compared with B15, B16 is higher in Ratio/Fc-H: 1.4 fold for the first, 2.5 fold for the second.

First: B17
Second: B18
The Ratio/Fc-H of the first is lower: 2 fold for the first, 3.8 fold for the second.

Going from B19 to B20, the Ratio/Fc-H rises from 2.7 fold to 3.6 fold.

Going from B21 to B22, the Ratio/Fc-H rises from 2 fold to 2.7 fold.

Going from B23 to B24, the Ratio/Fc-H falls from 2.5 fold to 1.9 fold.

First: B25
Second: B26
The Ratio/Fc-H of the first is lower: 2.2 fold for the first, 3.4 fold for the second.

Going from B27 to B28, the Ratio/Fc-H rises from 1.2 fold to 2.8 fold.

First: B29
Second: B30
The Ratio/Fc-H of the first is lower: 1.9 fold for the first, 2.4 fold for the second.

Compared with B31, B32 is higher in Ratio/Fc-H: 1.8 fold for the first, 2.9 fold for the second.

B33 and B34 are the same in Ratio/Fc-H: 2.8 fold for the first, 2.8 fold for the second.

First: B35
Second: B36
The Ratio/Fc-H of the first is lower: 1.1 fold for the first, 2 fold for the second.

Compared with B37, B38 is lower in Ratio/Fc-H: 2.8 fold for the first, 2.3 fold for the second.

Compared with B39, B40 is higher in Ratio/Fc-H: 1.7 fold for the first, 2.6 fold for the second.

B41 and B42 are the same in Ratio/Fc-H: 3.6 fold for the first, 3.6 fold for the second.

Compared with B43, B44 is higher in Ratio/Fc-H: 2.5 fold for the first, 2.9 fold for the second.

Going from B45 to B46, the Ratio/Fc-H rises from 2.9 fold to 3.5 fold.

Going from B47 to B48, the Ratio/Fc-H rises from 1.8 fold to 2.5 fold.

Going from B49 to B50, the Ratio/Fc-H rises from 1.8 fold to 2.5 fold.
